Experimental findings from the supplement of paper PMC10567573 are described below.

B1: DVL3 (parent)
chain: SDVVDWLYHNVEGFTDRREARKYA
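Further: lentivirally expressed fusions sorted by FACS into six bins by GFP to DsRed ratio, PSI derived from sequencing read proportions per bin multiplied by bin number.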

This series covers variants of B1. Briefly: protein stability index of a GFP-peptide fusion (GPS, HEK-293T) (PSI 1-6); higher = more stable. Conditions: c terminus: a fixed tail appended.
SDVVDWLYHNVIGFTDRREARKYA: the protein stability index turned out to be 1.94.

On to SDVVDWLYHNVTGFTDRREARKYA, for which the protein stability index was found to be 2.63.

In the case of SDVVDWLYHNVPGFTDRREARKYA, the protein stability index was found to be 2.33.

With SDVVDWLYHNVHGFTDRREARKYA, the protein stability index was 2.88.

Take SDVVDWLYHNVSGFTDRREARKYA: the protein stability index is 2.83.

Consider SDVVDWLYHNVDGFTDRREARKYA, for which the protein stability index turned out to be 2.96.

Take SDVVDWLYHNVNGFTDRREARKYA: the protein stability index worked out at 2.5.

As to SDVVDWLYHNVFGFTDRREARKYA, the protein stability index amounted to 1.98.

With SDVVDWLYHNVWGFTDRREARKYA, the protein stability index turned out to be 2.04.

Consider SDVVDWLYHNVVGFTDRREARKYA, for which the protein stability index was found to be 1.28.

SDVVDWLYHNVAGFTDRREARKYA: the protein stability index was 3.49.

As for SDVVDWLYHNVYGFTDRREARKYA, the protein stability index was 1.58.

Regarding SDVVDWLYHNVCGFTDRREARKYA, the protein stability index came out at 2.18.

On to SDVVDWLYHNVGGFTDRREARKYA, for which the protein stability index was found to be 2.37.

As to SDVVDWLYHNVKGFTDRREARKYA, the protein stability index was found to be 3.54.

For SDVVDWLYHNVMGFTDRREARKYA, the protein stability index was determined as 2.01.

Regarding SDVVDWLYHNVQGFTDRREARKYA, the protein stability index was found to be 2.98.

On to SDVVDWLYHNVLGFTDRREARKYA, for which the protein stability index was 2.08.

Consider SDVVDWLYHNVRGFTDRREARKYA, for which the protein stability index amounted to 2.78.

With SDVVDWLYHNVEWFTDRREARKYA, the protein stability index stood at 2.52.

In the case of SDVVDWLYHNVEDFTDRREARKYA, the protein stability index came out at 3.66.

Regarding SDVVDWLYHNVESFTDRREARKYA, the protein stability index was determined as 2.96.

For SDVVDWLYHNVEHFTDRREARKYA, the protein stability index was determined as 2.56.

In the case of SDVVDWLYHNVENFTDRREARKYA, the protein stability index was 2.66.

For the variant SDVVDWLYHNVEKFTDRREARKYA, the protein stability index came to 2.95.

On to SDVVDWLYHNVERFTDRREARKYA, for which the protein stability index is 3.93.

For SDVVDWLYHNVEFFTDRREARKYA, the protein stability index worked out at 1.61.

Regarding SDVVDWLYHNVECFTDRREARKYA, the protein stability index came to 2.68.

For the variant SDVVDWLYHNVETFTDRREARKYA, the protein stability index amounted to 2.93.

Take SDVVDWLYHNVEAFTDRREARKYA: the protein stability index is 2.71.

Take SDVVDWLYHNVEIFTDRREARKYA: the protein stability index was found to be 2.28.

SDVVDWLYHNVEQFTDRREARKYA: the protein stability index was 2.33.

Regarding SDVVDWLYHNVEMFTDRREARKYA, the protein stability index turned out to be 2.71.

For the variant SDVVDWLYHNVEYFTDRREARKYA, the protein stability index was 2.1.

Take SDVVDWLYHNVEVFTDRREARKYA: the protein stability index is 2.14.

Take SDVVDWLYHNVEEFTDRREARKYA: the protein stability index was determined as 3.3.

Regarding SDVVDWLYHNVELFTDRREARKYA, the protein stability index was 2.28.

SDVVDWLYHNVEPFTDRREARKYA: the protein stability index is 3.2.

Regarding SDVVDWLYHNVEGETDRREARKYA, the protein stability index is 4.77.

For the variant SDVVDWLYHNVEGLTDRREARKYA, the protein stability index stood at 3.11.

As for SDVVDWLYHNVEGSTDRREARKYA, the protein stability index was determined as 4.19.

For SDVVDWLYHNVEGQTDRREARKYA, the protein stability index stood at 3.86.

Regarding SDVVDWLYHNVEGDTDRREARKYA, the protein stability index came to 3.95.

For the variant SDVVDWLYHNVEGHTDRREARKYA, the protein stability index came out at 3.27.

For the variant SDVVDWLYHNVEGKTDRREARKYA, the protein stability index amounted to 4.76.

In the case of SDVVDWLYHNVEGTTDRREARKYA, the protein stability index stood at 3.87.

For SDVVDWLYHNVEGNTDRREARKYA, the protein stability index came to 3.61.

As for SDVVDWLYHNVEGCTDRREARKYA, the protein stability index was determined as 3.04.

SDVVDWLYHNVEGRTDRREARKYA: the protein stability index worked out at 2.56.

SDVVDWLYHNVEGWTDRREARKYA: the protein stability index was found to be 3.18.

For the variant SDVVDWLYHNVEGITDRREARKYA, the protein stability index worked out at 3.97.

Turning to SDVVDWLYHNVEGGTDRREARKYA, the protein stability index was found to be 3.96.

Regarding SDVVDWLYHNVEGPTDRREARKYA, the protein stability index is 3.61.

Take SDVVDWLYHNVEGFTDRREVRKYA: the protein stability index worked out at 1.83.

Consider SDVVDWLYHNVEGFTDRREWRKYA, for which the protein stability index came to 2.18.

On to SDVVDWLYHNVEGFTDRREQRKYA, for which the protein stability index was determined as 2.69.

On to SDVVDWLYHNVEGFTDRREPRKYA, for which the protein stability index turned out to be 4.29.

Regarding SDVVDWLYHNVEGFTDRREKRKYA, the protein stability index was 2.56.

Turning to SDVVDWLYHNVEGFTDRRETRKYA, the protein stability index is 3.16.

For the variant SDVVDWLYHNVEGFTDRREFRKYA, the protein stability index is 2.28.

As for SDVVDWLYHNVEGFTDRREIRKYA, the protein stability index came to 1.98.

Consider SDVVDWLYHNVEGFTDRRESRKYA, for which the protein stability index amounted to 3.43.

As to SDVVDWLYHNVEGFTDRRELRKYA, the protein stability index was 2.34.

With SDVVDWLYHNVEGFTDRREERKYA, the protein stability index was found to be 3.5.

Take SDVVDWLYHNVEGFTDRREGRKYA: the protein stability index came out at 4.09.

Regarding SDVVDWLYHNVEGFTDRREHRKYA, the protein stability index stood at 3.02.

Consider SDVVDWLYHNVEGFTDRREYRKYA, for which the protein stability index is 2.34.

Regarding SDVVDWLYHNVEGFTDRREDRKYA, the protein stability index turned out to be 3.1.

Turning to SDVVDWLYHNVEGFTDRRECRKYA, the protein stability index came out at 2.73.

On to SDVVDWLYHNVEGFTDRREMRKYA, for which the protein stability index was 3.28.

As for SDVVDWLYHNVEGFTDRRERRKYA, the protein stability index worked out at 3.15.

With SDVVDWLYHNVEGFTDRRENRKYA, the protein stability index came to 2.96.

For SDVVDWLYHNVEGFTDRRPARKYA, the protein stability index is 2.85.

As to SDVVDWLYHNVEGFTDRRCARKYA, the protein stability index was 2.38.

Consider SDVVDWLYHNVEGFTDRRKARKYA, for which the protein stability index worked out at 2.33.

With SDVVDWLYHNVEGFTDRRDARKYA, the protein stability index amounted to 3.18.

As to SDVVDWLYHNVEGFTDRRYARKYA, the protein stability index worked out at 1.73.

As for SDVVDWLYHNVEGFTDRRMARKYA, the protein stability index stood at 2.67.

Take SDVVDWLYHNVEGFTDRRGARKYA: the protein stability index stood at 3.02.

For the variant SDVVDWLYHNVEGFTDRRNARKYA, the protein stability index was determined as 2.86.

On to SDVVDWLYHNVEGFTDRRTARKYA, for which the protein stability index turned out to be 2.64.

On to SDVVDWLYHNVEGFTDRRWARKYA, for which the protein stability index was determined as 1.82.

For SDVVDWLYHNVEGFTDRRHARKYA, the protein stability index came out at 2.58.

Turning to SDVVDWLYHNVEGFTDRRAARKYA, the protein stability index was 2.54.

SDVVDWLYHNVEGFTDRRIARKYA: the protein stability index was found to be 2.25.

As for SDVVDWLYHNVEGFTDRRSARKYA, the protein stability index was 2.73.

With SDVVDWLYHNVEGFTDRRVARKYA, the protein stability index came out at 2.66.

SDVVDWLYHNVEGFTDRRFARKYA: the protein stability index turned out to be 2.34.

Take SDVVDWLYHNVEGFTDRRLARKYA: the protein stability index worked out at 2.35.

Regarding SDVVDWLYHNVEGFTDRREAEKYA, the protein stability index amounted to 3.57.

Regarding SDVVDWLYHNVEGFTDRREACKYA, the protein stability index was determined as 2.31.

On to SDVVDWLYHNVEGFTDRREAAKYA, for which the protein stability index amounted to 2.48.

Take SDVVDWLYHNVEGFTDRREAFKYA: the protein stability index was found to be 2.65.

For the variant SDVVDWLYHNVEGFTDRREADKYA, the protein stability index was found to be 3.52.
